Source: patent US20210071139A1

Tests used:
TOX [1] = biological target: TOX (UniProt Q66JW3); assay: anti-TOX IP from EL4 cells, mass spectrometry, MiST analysis
TOX [2] = biological target: TOX (UniProt Q66JW3); assay: anti-TOX IP from EL4 nuclear extract, LC-MS/MS, MiST analysis

TOX, sequence (Q66JW3 whole entry): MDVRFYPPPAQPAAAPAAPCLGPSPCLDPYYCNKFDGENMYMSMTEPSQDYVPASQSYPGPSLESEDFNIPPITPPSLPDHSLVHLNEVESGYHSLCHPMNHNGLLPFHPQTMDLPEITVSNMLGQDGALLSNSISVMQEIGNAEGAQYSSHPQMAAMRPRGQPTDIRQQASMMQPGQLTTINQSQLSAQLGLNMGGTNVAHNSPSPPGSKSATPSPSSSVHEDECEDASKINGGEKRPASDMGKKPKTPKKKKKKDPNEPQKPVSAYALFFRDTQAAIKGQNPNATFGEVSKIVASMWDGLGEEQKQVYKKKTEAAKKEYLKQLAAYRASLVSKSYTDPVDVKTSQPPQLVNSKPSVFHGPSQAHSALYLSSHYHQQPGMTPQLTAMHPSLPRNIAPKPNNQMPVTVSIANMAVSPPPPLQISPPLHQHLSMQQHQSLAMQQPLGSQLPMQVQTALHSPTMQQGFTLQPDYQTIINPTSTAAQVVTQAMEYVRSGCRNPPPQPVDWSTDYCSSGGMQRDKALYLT
Emg1, sequence (O35130 whole entry): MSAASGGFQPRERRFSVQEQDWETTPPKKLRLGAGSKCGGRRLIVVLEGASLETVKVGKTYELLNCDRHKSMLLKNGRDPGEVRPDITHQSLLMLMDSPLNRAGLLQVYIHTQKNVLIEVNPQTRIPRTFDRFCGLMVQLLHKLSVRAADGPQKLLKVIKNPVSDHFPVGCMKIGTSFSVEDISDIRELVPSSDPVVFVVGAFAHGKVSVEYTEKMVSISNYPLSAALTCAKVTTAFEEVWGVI

Row | Substance | Abundance (TOX [1]) | MiST Score (TOX [1]) | Reproducibility (TOX [1]) | Specificity (TOX [1]) | Abundance (TOX [2]) | MiST Score (TOX [2]) | Reproducibility (TOX [2]) | Specificity (TOX [2])
1 | Aars (from UniProt Q8BGQ7 1-968) (enzyme) | 4.49e-06 | 0.827 | 0.459 | 1 |  |  |  | 
2 | Acin1 (from UniProt Q9JIX8 1-1338) |  |  |  |  | 2.27e-05 | 0.77 | 0.612 | 0.848
3 | Add3 (from UniProt Q9QYB5 2-706) | 3.22e-06 | 0.807 | 0.394 | 1 |  |  |  | 
4 | Ahnak | 6.22e-06 | 0.812 | 0.497 | 0.961 |  |  |  | 
5 | Ap3b1 (from UniProt Q9Z1T1 1-1105) |  |  |  |  | 4.13e-06 | 0.778 | 0.696 | 0.821
6 | Ap3d1 (from UniProt O54774 2-1199) | 1.02e-06 | 0.817 | 0.427 | 1 |  |  |  | 
7 | BC005685 |  |  |  |  | 0.000234 | 0.779 | 0.959 | 0.705
8 | Bag6 (from UniProt Q9Z1R2 1-1154) |  |  |  |  | 1.4e-06 | 0.782 | 0.765 | 0.797
9 | Baz1a (from UniProt O88379 1-1555) | 4.09e-07 | 0.825 | 0.454 | 1 |  |  |  | 
10 | Brd1 |  |  |  |  | 3.1e-06 | 0.785 | 0.321 | 1
11 | Cd3eap (from UniProt Q76KJ5 1-399) |  |  |  |  | 0.000224 | 0.773 | 0.993 | 0.68
12 | Ckap5 (from UniProt A2AGT5 1-2032) | 1.02e-06 | 0.81 | 0.924 | 0.765 |  |  |  | 
13 | Cpsf3 (from UniProt Q9QXK7 2-684) (enzyme) | 1.17e-05 | 0.825 | 0.871 | 0.811 |  |  |  | 
14 | Csnk2a2 (from UniProt O54833 1-350) (enzyme) |  |  |  |  | 2.87e-05 | 0.778 | 0.913 | 0.725
15 | Cycs (from UniProt P62897 2-105) |  |  |  |  | 8.14e-05 | 0.793 | 0.957 | 0.726
16 | Ddx18 (from UniProt Q8K363 1-660) (enzyme) | 4.72e-05 | 0.822 | 0.986 | 0.756 |  |  |  | 

Row | Substance | Abundance (TOX [1]) | MiST Score (TOX [1]) | Reproducibility (TOX [1]) | Specificity (TOX [1]) | Abundance (TOX [2]) | MiST Score (TOX [2]) | Reproducibility (TOX [2]) | Specificity (TOX [2])
17 | Dnaja2 (from UniProt Q9QYJ0 1-409) | 0.000332 | 0.8 | 0.946 | 0.742 |  |  |  | 
18 | Dnmt1 (from UniProt P13864 1-1620) (enzyme) | 4.05e-06 | 0.814 | 0.929 | 0.77 |  |  |  | 
19 | Dst (from UniProt Q91ZU6 1-7393) | 1.97e-08 | 0.804 | 0.385 | 1 |  |  |  | 
20 | Eif2a (from UniProt Q8BJW6 1-581) |  |  |  |  | 8.58e-05 | 0.794 | 0.992 | 0.712
21 | Eif3h (from UniProt Q91WK2 1-352) |  |  |  |  | 0.000105 | 0.784 | 0.956 | 0.714
22 | Elmo1 (from UniProt Q8BPU7 1-727) |  |  |  |  | 5.93e-06 | 0.769 | 0.595 | 0.854
23 | Emg1 (from UniProt O35130 1-244) (enzyme) |  |  |  |  | 7.66e-05 | 0.766 | 0.939 | 0.695
24 | Ep400 (from UniProt Q8CHI8 1-3072) | 2.31e-06 | 0.825 | 0.451 | 1 |  |  |  | 
25 | Gm20425; Srprb (from UniProt P47758 1-269) |  |  |  |  | 5.88e-06 | 0.766 | 0.92 | 0.703
26 | Hp1bp3 (from UniProt Q3TEA8 2-554) |  |  |  |  | 1.65e-05 | 0.766 | 0.779 | 0.766
27 | Ipo4 (from UniProt Q8VI75 1-1082) | 1.65e-06 | 0.826 | 0.94 | 0.782 |  |  |  | 
28 | Isy1 (from UniProt Q69ZQ2 1-285) | 3.22e-05 | 0.811 | 0.856 | 0.797 |  |  |  | 
29 | LRWD1 (from UniProt Q8BUI3 1-648) | 9.87e-06 | 0.803 | 0.965 | 0.737 |  |  |  | 
30 | Lmnb1 (from UniProt P14733 2-585) | 1.67e-05 | 0.822 | 0.964 | 0.766 |  |  |  | 
31 | Lrrfip1 (from UniProt Q3UZ39 2-729) | 8.42e-06 | 0.817 | 0.996 | 0.743 |  |  |  | 
